This is an account of results in article PMC8938504 (Nature Communications, 2022).

The target in one experiment is 6×His-tagged AVR-Pia (Magnaporthe oryzae). The experiment is described as follows: SPR; […] (single-cycle kinetics, […]; 25 °C; 20 mM Tris pH 8, 150 mM NaCl, 0.5 mM DTT; […]. The note with it: both partners purified.
The next experiment has as its target 6×His-tagged AVR1-CO39 (Magnaporthe oryzae). The experiment is described as above. The note with it: both partners purified.

Sequence of 6×His-tagged AVR-Pia (Magnaporthe oryzae) (F7J0N2 982-1116): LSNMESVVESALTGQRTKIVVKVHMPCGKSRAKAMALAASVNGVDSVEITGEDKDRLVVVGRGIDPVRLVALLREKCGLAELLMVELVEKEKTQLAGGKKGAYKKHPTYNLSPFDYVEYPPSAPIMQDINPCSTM
Sequence of 6×His-tagged AVR1-CO39 (Magnaporthe oryzae) (F7J0N2 982-1116): as above

B1: MBP:RGA5_HMA (wild-type RGA5 HMA domain fused to the maltose-binding protein) (domain or fragment)
chain: SALTGQRTKIVVKVHMPCGKSRAKAMALAASVNGVDSVEITGEDKDRLVVVGRGIDPVRLVALLREKCGLAELLMVELVEKE
For the molecule B1, the Kd with 6×His-tagged AVR-Pia amounted to 7.2 µM; with 6×His-tagged AVR1-CO39, 4.9 µM.
